The source of these data is US20240368279A1 (published 2024).

For one test, the target named is 12283-H08H (human, UniProt Q08722 19-139). In words: SPR.
In test [1] the target is human CD47 protein (antigen of the SPR affinity determination) (human, UniProt Q08722 19-139). Kind of test: SPR.

B1: Hu004-68 (antibody, V domains shown)
VH: EVQLVESGGGLVQPGGSLRLSCAASGFTFSGYGMSWVRQAPGKGLEWVATITSGGTYTYYPDSVKGRFTISRDNAKNSLYLQMNSLRAEDTAVYYCARSLAGNAMDYWGQGTLVTVSS
VL: EIVLTQSPVTLSVSPGERATLSCRASQGVTSNLAWYQQKPGQAPRLLIYGASTRATGVPARFSGSGSGTEFTLTISSLQSEDFAVYYCQHRGTFGQGTKVDIK
In the test with 12283-H08H, B1 showed a Kd of 222 nM.

B2: Hu004-73 antibody (full-length human IgG1, kappa) (antibody, V domains shown)
VH: B1 VH
VL: DIQMTQSPSSLSASVGDRVTITCRAGQPLNNYLNWYQQKPGKPPRLLIYAASTLQSGVPSRFSGSGSGTDFTLTISGLQSEDFASYFCQHRVTFGPGTKVDVR
For B2, in test [1], the Kd was determined as 184 nM.
